In article PMC4230899, “Diverse allosteric and catalytic functions of tetrameric D-lactate dehydrogenases from three Gram-negative bacteria” (AMB Express, 2014):

Columns and labels:
ECLDH [1] = target: T1, ECLDH (Escherichia coli, UniProt P52643); assay: NADH absorbance at […] nm, activation of pyruvate reduction, Hill fit; type: biochemical; conditions: slight activator, half-saturation for activation; 7.5 mM pyruvate, 0.1 mM NADH; 50 mM Bicine-NaOH pH 8.0; 30 °C; read-out: S 0.5
T1 construct: gene ldhA
T1 sequence (P52643 1-329): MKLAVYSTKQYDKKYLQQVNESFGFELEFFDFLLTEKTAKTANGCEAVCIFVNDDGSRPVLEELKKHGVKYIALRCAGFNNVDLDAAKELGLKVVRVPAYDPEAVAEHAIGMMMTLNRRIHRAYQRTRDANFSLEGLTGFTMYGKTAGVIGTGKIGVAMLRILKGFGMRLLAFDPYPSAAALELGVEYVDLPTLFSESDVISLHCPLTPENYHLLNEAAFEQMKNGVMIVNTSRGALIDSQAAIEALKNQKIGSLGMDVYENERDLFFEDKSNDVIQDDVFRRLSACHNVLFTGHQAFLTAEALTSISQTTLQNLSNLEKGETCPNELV

[2] = target: NAD-dependent D-lactate dehydrogenase from Pseudomonas aeruginosa (Pseudomonas aeruginosa JCM8532 (=PAO1)); assay: SEC; Superdex 200 (Hiload 16/60), 1 ml of 1 mg/ml protein, 50 mM sodium acetate pH 5.0 with 150 mM NaCl; calibrated with standard proteins; apparent molecular weight against theoretical subunit weight
ECLDH [3] = target: T1, ECLDH; assay: NADH absorbance at […] nm, pyruvate reduction, nonlinear regression; type: biochemical
FNLDH = target: T2, FNLDH (Fusobacterium nucleatum, UniProt Q8RG11); assay: as above; type: biochemical
T2 construct: gene FN0511
T2 sequence (Q8RG11 1-335): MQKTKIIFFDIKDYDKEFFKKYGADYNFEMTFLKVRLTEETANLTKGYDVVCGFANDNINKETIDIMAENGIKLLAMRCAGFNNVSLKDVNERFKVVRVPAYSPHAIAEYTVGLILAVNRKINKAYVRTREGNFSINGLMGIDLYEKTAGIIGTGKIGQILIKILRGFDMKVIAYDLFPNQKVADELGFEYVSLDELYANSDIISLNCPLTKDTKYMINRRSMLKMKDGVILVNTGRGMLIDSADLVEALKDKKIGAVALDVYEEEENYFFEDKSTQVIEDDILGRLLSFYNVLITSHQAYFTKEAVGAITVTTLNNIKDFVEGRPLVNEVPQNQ

PALDH = target: T3, PALDH (Pseudomonas aeruginosa, UniProt Q9I530); assay: as above; type: biochemical
T3 construct: gene ldhA
T3 sequence (Q9I530 1-329): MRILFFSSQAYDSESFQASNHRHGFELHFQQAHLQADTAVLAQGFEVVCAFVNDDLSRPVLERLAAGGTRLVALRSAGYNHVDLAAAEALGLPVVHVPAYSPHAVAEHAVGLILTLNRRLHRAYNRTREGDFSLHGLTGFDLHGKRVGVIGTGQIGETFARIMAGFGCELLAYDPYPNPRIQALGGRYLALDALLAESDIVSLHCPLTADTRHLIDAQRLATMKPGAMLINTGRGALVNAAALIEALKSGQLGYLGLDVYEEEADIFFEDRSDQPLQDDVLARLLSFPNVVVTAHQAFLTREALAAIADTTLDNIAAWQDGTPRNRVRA

purified protein [4] = substrate: CC(=O)C(=O)O; assay: purified protein; type: biochemical, Pseudomonas aeruginosa; conditions: 0.1 mM NADH, pH 7.0, 30 °C, no effector, fit with substrate inhibition
purified protein [5] = substrate: CCC(=O)C(=O)O; assay: purified protein; type: biochemical, Pseudomonas aeruginosa; conditions: 0.1 mM NADH, pH 7.0, 30 °C
purified protein [6] = substrate: NC(=O)C1=CN([C@@H]2O[C@H](COP(=O)(O)OP(=O)(O)OC[C@H]3O[C@@H](n4cnc5c(N)ncnc54)[C@H](O)[C@@H]3O)[C@@H](O)[C@H]2O)C=CC1; assay: purified protein; type: biochemical, Pseudomonas aeruginosa; conditions: saturating pyruvate, pH 7.0, 30 °C, no effector, apparent, varied: cofactor
purified protein [7] = substrate: O=C(O)C(=O)CO; assay: purified protein; type: biochemical, Pseudomonas aeruginosa; conditions: 0.1 mM NADH, pH 7.0, 30 °C, fit with substrate inhibition
purified protein [8] = substrate: O=C(O)CC(=O)C(=O)O; assay: purified protein; type: biochemical, Pseudomonas aeruginosa; conditions: 0.1 mM NADH, pH 7.0, 30 °C
purified protein [9] = substrate: CC(=O)C(=O)O; assay: purified protein; type: biochemical, Escherichia coli; conditions: 0.1 mM NADH, pH 7.0, 30 °C, no effector, Hill fit
purified protein [10] = substrate: NC(=O)C1=CN([C@@H]2O[C@H](COP(=O)(O)OP(=O)(O)OC[C@H]3O[C@@H](n4cnc5c(N)ncnc54)[C@H](O)[C@@H]3O)[C@@H](O)[C@H]2O)C=CC1; assay: purified protein; type: biochemical, Escherichia coli; conditions: saturating pyruvate, pH 7.0, 30 °C, no effector, apparent, varied: cofactor
purified protein [11] = substrate: O=C(O)C(=O)CO; assay: purified protein; type: biochemical, Escherichia coli; conditions: 0.1 mM NADH, pH 7.0, 30 °C
purified protein [12] = substrate: O=CC(=O)O; assay: purified protein; type: biochemical, Escherichia coli; conditions: 0.1 mM NADH, pH 7.0, 30 °C, Hill fit
[13] = target: the molecule itself; assay: SEC; Superdex 200 (Hiload 16/60), 1 ml of 1 mg/ml protein, 50 mM HEPES-NaOH pH 8.0 with 150 mM NaCl; calibrated with standard proteins; apparent molecular weight against theoretical subunit weight
purified protein [14] = substrate: CC(=O)C(=O)O; assay: purified protein; type: biochemical, Fusobacterium nucleatum; conditions: 0.1 mM NADH, pH 7.0, 30 °C, no effector
purified protein [15] = substrate: CCC(=O)C(=O)O; assay: purified protein; type: biochemical, Fusobacterium nucleatum; conditions: 0.1 mM NADH, pH 7.0, 30 °C
purified protein [16] = substrate: CCCC(=O)C(=O)O; assay: purified protein; type: biochemical, Fusobacterium nucleatum; conditions: 0.1 mM NADH, pH 7.0, 30 °C
purified protein [17] = substrate: NC(=O)C1=CN([C@@H]2O[C@H](COP(=O)(O)OP(=O)(O)OC[C@H]3O[C@@H](n4cnc5c(N)ncnc54)[C@H](O)[C@@H]3O)[C@@H](O)[C@H]2O)C=CC1; assay: purified protein; type: biochemical, Fusobacterium nucleatum; conditions: saturating pyruvate, pH 7.0, 30 °C, no effector, apparent, varied: cofactor
purified protein [18] = substrate: O=C(O)CC(=O)C(=O)O; assay: purified protein; type: biochemical, Fusobacterium nucleatum; conditions: 0.1 mM NADH, pH 7.0, 30 °C, fit with substrate inhibition

**Q.** Which EC50 (ECLDH [1]) does the source give for `O=P(O)(O)OC[C@H]1OC(O)(COP(=O)(O)O)[C@@H](O)[C@@H]1O` (stereo partly shown) [FBP] here?
**A.** 1.3 mM

**Q.** For “NAD-dependent D-lactate dehydrogenase from Pseudomonas aeruginosa (enzyme)”, which stoichiometry N [2] is on record?
**A.** 3

**Q.** Which results are given for `NC(=O)C(=O)O` [Oxamate]?
**A.** Ki (ECLDH [3]): 20 ± 2 mM; Ki (FNLDH): 9.4 ± 0.2 mM; Ki (PALDH): 0.29 ± 0.04 mM

B1: PALDH (Pseudomonas aeruginosa PAO1) (protein)
chain: T3 sequence (Q9I530 1-329)
**Q.** What does the source list for B1?
**A.** K0.5 (purified protein [4]): 0.10 (0.009) mM; kcat (purified protein [4]): 400 s⁻¹; kcat/Km (purified protein [4]): 4e+06 M⁻¹ s⁻¹; K0.5 (purified protein [5]): 0.64 (0.01) mM; kcat (purified protein [5]): 100 s⁻¹; kcat/Km (purified protein [5]): 150000 M⁻¹ s⁻¹; K0.5 (purified protein [6]): 0.019 (0.0005) mM; kcat (purified protein [6]): 310 s⁻¹; kcat/Km (purified protein [6]): 1.7e+07 M⁻¹ s⁻¹; K0.5 (purified protein [7]): 3.0 (0.2) mM; kcat (purified protein [7]): 420 s⁻¹; kcat/Km (purified protein [7]): 140000 M⁻¹ s⁻¹; K0.5 (purified protein [8]): 1.7 (0.06) mM; kcat (purified protein [8]): 410 s⁻¹; kcat/Km (purified protein [8]): 230000 M⁻¹ s⁻¹

B2: NAD-dependent D-lactate dehydrogenase from Escherichia coli (enzyme, E. coli BL21(DE3), UniProt P52643 1-329, looked up)
chain: T1 sequence (P52643 1-329)
notes: gene amplified from genomic DNA with primers from the start codon to the stop codon; theoretical molecular weight printed as 38.5 kDa; No removal of the vector's tag is described; the printed theoretical mass (38.5 kDa) may include the leader of pCold I (surmise); A second peak at the position of an octamer was seen and put down as a likely artefact of overexpression; also called ECLDH; …
**Q.** Which results are given for B2?
**A.** K0.5 (purified protein [9]): 2.6 (0.09) mM; kcat (purified protein [9]): 410 s⁻¹; kcat/Km (purified protein [9]): 160000 M⁻¹ s⁻¹; K0.5 (purified protein [10]): 0.055 (0.004) mM; kcat (purified protein [10]): 640 s⁻¹; kcat/Km (purified protein [10]): 1.2e+07 M⁻¹ s⁻¹; K0.5 (purified protein [11]): 12 (0.3) mM; kcat (purified protein [11]): 50 s⁻¹; kcat/Km (purified protein [11]): 4200 M⁻¹ s⁻¹; K0.5 (purified protein [12]): 20 (2) mM; kcat (purified protein [12]): 100 s⁻¹; kcat/Km (purified protein [12]): 5300 M⁻¹ s⁻¹; stoichiometry N [13]: 4

B3: NAD-dependent D-lactate dehydrogenase from Fusobacterium nucleatum subsp. nucleatum (enzyme, UniProt Q8RG11 1-335, looked up)
chain: T2 sequence (Q8RG11 1-335)
notes: FN0511 protein (FNLDH), NAD-dependent D-lactate dehydrogenase of Fusobacterium nucleatum subsp. nucleatum JCM14847 (=ATCC25586); gene amplified from genomic DNA with primers from the start codon to the stop codon; theoretical molecular weight printed as 40.0 kDa; No removal of the vector's tag is described; the printed theoretical mass (40.0 kDa) may include the leader of pCold I (surmise); The …
**Q.** Which K0.5 (purified protein [14]) does the source give for B3 here?
**A.** 0.34 (0.007) mM

**Q.** What about the kcat (purified protein [14]) of the same molecule?
**A.** 80 s⁻¹

**Q.** What about the kcat/Km (purified protein [14]) of the same molecule?
**A.** 230000 M⁻¹ s⁻¹

**Q.** What about the K0.5 (purified protein [15]) of the same molecule?
**A.** 0.31 (0.006) mM

**Q.** And the kcat (purified protein [15])?
**A.** 140 s⁻¹

**Q.** What about the kcat/Km (purified protein [15]) of the same molecule?
**A.** 440000 M⁻¹ s⁻¹

**Q.** And the K0.5 (purified protein [16])?
**A.** 0.68 (0.01) mM

**Q.** And the kcat (purified protein [16])?
**A.** 140 s⁻¹

**Q.** And the kcat/Km (purified protein [16])?
**A.** 200000 M⁻¹ s⁻¹

**Q.** What about the K0.5 (purified protein [17]) of the same molecule?
**A.** 0.022 (0.0005) mM

**Q.** What about the kcat (purified protein [17]) of the same molecule?
**A.** 98 s⁻¹

**Q.** What about the kcat/Km (purified protein [17]) of the same molecule?
**A.** 4.4e+06 M⁻¹ s⁻¹

**Q.** And the K0.5 (purified protein [18])?
**A.** 2.5 (0.09) mM

**Q.** And the kcat (purified protein [18])?
**A.** 80 s⁻¹

**Q.** And the kcat/Km (purified protein [18])?
**A.** 31000 M⁻¹ s⁻¹

**Q.** What about the “stoichiometry N” value [13] of the same molecule?
**A.** 4
